Substrate: CCCCC/C=C\C/C(=C\CCCCCCCC(=O)O[C@@H]1O[C@H](C(=O)O)[C@@H](O)[C@H](O)[C@H]1O)[N+](=O)[O-]
Experiment: TP_TRANSPORTER: vesicle uptake in MRP1-expressing membrane vesicles
Type: functional, cell membranes, MCF7/MRP1-10

B1: Multidrug resistance-associated protein 1 (Homo sapiens) (protein)
chain: MALRGFCSADGSDPLWDWNVTWNTSNPDFTKCFQNTVLVWVPCFYLWACFPFYFLYLSRHDRGYIQMTPLNKTKTALGFLLWIVCWADLFYSFWERSRGIFLAPVFLVSPTLLGITMLLATFLIQLERRKGVQSSGIMLTFWLVALVCALAILRSKIMTALKEDAQVDLFRDITFYVYFSLLLIQLVLSCFSDRSPLFSETIHDPNPCPESSASFLSRITFWWITGLIVRGYRQPLEGSDLWSLNKEDTSEQVVPVLVKNWKKECAKTRKQPVKVVYSSKDPAQPKESSKVDANEEVEALIVKSPQKEWNPSLFKVLYKTFGPYFLMSFFFKAIHDLMMFSGPQILKLLIKFVNDTKAPDWQGYFYTVLLFVTACLQTLVLHQYFHICFVSGMRIKTAVIGAVYRKALVITNSARKSSTVGEIVNLMSVDAQRFMDLATYINMIWSAPLQVILALYLLWLNLGPSVLAGVAVMVLMVPVNAVMAMKTKTYQVAHMKSKDNRIKLMNEILNGIKVLKLYAWELAFKDKVLAIRQEELKVLKKSAYLSAVGTFTWVCTPFLVALCTFAVYVTIDENNILDAQTAFVSLALFNILRFPLNILPMVISSIVQASVSLKRLRIFLSHEELEPDSIERRPVKDGGGTNSITVRNATFTWARSDPPTLNGITFSIPEGALVAVVGQVGCGKSSLLSALLAEMDKVEGHVAIKGSVAYVPQQAWIQNDSLRENILFGCQLEEPYYRSVIQACALLPDLEILPSGDRTEIGEKGVNLSGGQKQRVSLARAVYSNADIYLFDDPLSAVDAHVGKHIFENVIGPKGMLKNKTRILVTHSMSYLPQVDVIIVMSGGKISEMGSYQELLARDGAFAEFLRTYASTEQEQDAEENGVTGVSGPGKEAKQMENGMLVTDSAGKQLQRQLSSSSSYSGDISRHHNSTAELQKAEAKKEETWKLMEADKAQTGQVKLSVYWDYMKAIGLFISFLSIFLFMCNHVSALASNYWLSLWTDDPIVNGTQEHTKVRLSVYGALGISQGIAVFGYSMAVSIGGILASRCLHVDLLHSILRSPMSFFERTPSGNLVNRFSKELDTVDSMIPEVIKMFMGSLFNVIGACIVILLATPIAAIIIPPLGLIYFFVQRFYVASSRQLKRLESVSRSPVYSHFNETLLGVSVIRAFEEQERFIHQSDLKVDENQKAYYPSIVANRWLAVRLECVGNCIVLFAALFAVISRHSLSAGLVGLSVSYSLQVTTYLNWLVRMSSEMETNIVAVERLKEYSETEKEAPWQIQETAPPSSWPQVGRVEFRNYCLRYREDLDFVLRHINVTINGGEKVGIVGRTGAGKSSLTLGLFRINESAEGEIIIDGINIAKIGLHDLRFKITIIPQDPVLFSGSLRMNLDPFSQYSDEEVWTSLELAHLKDFVSALPDKLDHECAEGGENLSVGQRQLVCLARALLRKTKILVLDEATAAVDLETDDLIQSTIRTQFEDCTVLTIAHRLNTIMDYTRVIVLDKGEIQEYGAPSDLLQQRGLFYSMAKDAGLV
**Q.** B1 was tested. Which Km did it give?
**A.** 0.75 µM

From ChEMBL document CHEMBL2074211, “Modulation of nitrated lipid signaling by multidrug resistance protein 1 (MRP1): glutathione conjugation and MRP1-mediated efflux inhibit nitrolinoleic acid-induced, PPARgamma-dependent transcription activation” (Biochemistry, 2006)
